Columns and labels:
[1] = target: HLA-B*18:01; test: IEDB peptide-MHC binding, purified MHC/direct/fluorescence; filed as Kd, often an IC50 or EC50 that approximates it; ≥ and ≤ were set here for values at or beyond the usual limits of such assays
[2] = target: HLA-B*44:02; test: as above
[3] = target: HLA-A*69:01; test: as above
[4] = target: HLA-A*26:01; test: as above
[5] = target: HLA-A*11:01; test: as above
[6] = target: HLA-B*27:05; test: as above
[7] = target: HLA-A*02:01; test: as above
[8] = target: HLA-A*01:01; test: as above
[9] = target: HLA-B*15:01; test: as above
[10] = target: HLA-B*58:01; test: as above
[11] = target: HLA-B*40:01; test: as above
[12] = target: HLA-A*03:01; test: as above
[13] = target: HLA-B*07:02; test: as above
[14] = target: HLA-A*31:01; test: as above
[15] = target: HLA-B*08:01; test: as above
[16] = target: HLA-B*15:03; test: IEDB peptide-MHC binding, purified MHC/competitive/radioactivity; filed as Kd, often an IC50 or EC50 that approximates it; ≥ and ≤ were set here for values at or beyond the usual limits of such assays
[17] = target: HLA-A*32:01; test: as above
[18] = target: HLA-B*15:01; test: as above
[19] = target: HLA-A*30:01; test: as above; details: source organism: Vaccinia virus WR
[20] = target: HLA-B*08:01; test: as above; details: source organism: Vaccinia virus WR
[21] = target: HLA-A*24:03; test: IEDB peptide-MHC binding, purified MHC/direct/fluorescence; filed as Kd, often an IC50 or EC50 that approximates it; ≥ and ≤ were set here for values at or beyond the usual limits of such assays
[22] = target: HLA-B*44:02; test: IEDB peptide-MHC binding, purified MHC/competitive/radioactivity; filed as Kd, often an IC50 or EC50 that approximates it; ≥ and ≤ were set here for values at or beyond the usual limits of such assays
[23] = target: HLA-A*03:01; test: IEDB peptide-MHC binding, purified MHC/competitive/fluorescence; filed as Kd, often an IC50 or EC50 that approximates it; ≥ and ≤ were set here for values at or beyond the usual limits of such assays
[24] = target: HLA-B*46:01; test: as above
[25] = target: HLA-A*23:01; test: IEDB peptide-MHC binding, purified MHC/competitive/radioactivity; filed as Kd, often an IC50 or EC50 that approximates it; ≥ and ≤ were set here for values at or beyond the usual limits of such assays
[26] = target: HLA-B*44:03; test: as above
[27] = target: HLA-B*40:01; test: as above
[28] = target: HLA-B*57:01; test: IEDB peptide-MHC binding, purified MHC/direct/fluorescence; filed as Kd, often an IC50 or EC50 that approximates it; ≥ and ≤ were set here for values at or beyond the usual limits of such assays; details: source organism: Vibrio vulnificus
[29] = target: HLA-B*48:01; test: as above; details: source organism: Escherichia coli O157:H7
[30] = target: HLA-A*29:02; test: IEDB peptide-MHC binding, purified MHC/competitive/radioactivity; filed as Kd, often an IC50 or EC50 that approximates it; ≥ and ≤ were set here for values at or beyond the usual limits of such assays; details: source organism: Mammarenavirus tacaribeense
[31] = target: HLA-A*24:02; test: as above; details: source organism: Mammarenavirus tacaribeense
[32] = target: HLA-A*26:01; test: IEDB peptide-MHC binding, purified MHC/competitive/fluorescence; filed as Kd, often an IC50 or EC50 that approximates it; ≥ and ≤ were set here for values at or beyond the usual limits of such assays
[33] = source organism: dengue virus type 2
[34] = source organism: Bacillus anthracis
[35] = source organism: Vaccinia virus WR
[36] = source organism: Influenza A virus (A/SW/MN/3227/00(H1N2))
[37] = source organism: Mammarenavirus lassaense
[38] = source organism: Dengue virus 4 Philippines/H241/1956
[39] = source organism: Dengue virus 2 Jamaica/1409/1983
[40] = source organism: Vaccinia virus Copenhagen
[41] = source organism: Aggregatibacter actinomycetemcomitans
[42] = source organism: Dengue virus 1 Brazil/97-11/1997
[43] = source organism: Yersinia pestis Nepal516
[44] = source organism: Salmonella enterica
[45] = source organism: Dengue virus 3 Martinique/1243/1999
[46] = source organism: Vibrio parahaemolyticus

Work on EEEQTLTIL yielded a Kd [1, 33] of 4020 nM and a Kd [2, 33] of no less than 20 µM.
Work on FIFGKMGAG yielded a Kd [3, 34] of no less than 20 µM, a Kd [4, 34] of 5.37 µM and a Kd [5, 34] of no less than 20 µM. It also gave a Kd [6, 34] of no less than 20 µM, a Kd [7, 34] of no less than 20 µM and a Kd [8, 34] of no less than 20 µM. For the same sequence, the Kd [9, 34] was no less than 20 µM, the Kd [10, 34] was no less than 20 µM and the Kd [2, 34] was no less than 20 µM. For the same sequence, the Kd [11, 34] was no less than 20 µM, the Kd [12, 34] was no less than 20 µM and the Kd [13, 34] was no less than 20 µM. The Kd [14, 34] was no less than 20 µM and the Kd [15, 34] was no less than 20 µM.
EQKLRPNSF gave a Kd [16, 35] of 1100 nM, a Kd [17, 35] of 12200 nM and a Kd [18, 35] of 8.99 µM. It also gave a Kd [19] of 1010 nM and a Kd [20] of 6.14 µM.
For LEESHPGIF, the Kd [2, 36] was no less than 20 µM and the Kd [11, 36] was 0.0853 µM.
In the case of MVRLPYKDA, the Kd [16, 35] is reported as no less than 29900 nM, the Kd [17, 35] is reported as no less than 77800 nM and the Kd [18, 35] is reported as no less than 50.7 µM. For the same sequence, the Kd [19] was 0.763 nM and the Kd [20] was no less than 77.7 µM.
With AVLPRDMVF the Kd [21, 37] was 110 nM.
IKVTAASPM gave a Kd [16, 35] of 2.76 nM.
Work on FSILFSNNF yielded a Kd [16, 35] of 29.7 nM.
For ITNTEINSF, the Kd [16, 35] was 421 nM and the Kd [17, 35] was 413 nM.
TEPEDIDCW gave a Kd [22, 38] of 1140 nM.
For VEEDIRWKF, the Kd ([1]; source organism: Bacillus cereus) was 19.2 nM.
For FSFGDYFKK, the Kd ([23]; source organism: Fusobacterium vincentii ATCC 49256) was 39.5 nM.
With IIIPLSVSI the Kd [16, 35] was 1230 nM, the Kd [17, 35] was 69.6 nM and the Kd [18, 35] was 0.298 µM. For the same sequence, the Kd [19] was 1290 nM and the Kd [20] was no less than 31 µM.
TLYAVATTF gave a Kd ([24]; source organism: Dengue virus 2 Thailand/NGS-C/1944) of no less than 20000 nM, a Kd [17, 39] of 81.3 nM and a Kd [25, 39] of 134 nM.
CMVICLLSF was tested, and the Kd [16, 40] was 641 nM.
With RLNPMHQLLR the Kd ([23]; source organism: Influenza A virus H3N2) was 805 nM.
Work on KYDDRIQSQ yielded a Kd [3, 41] of no less than 20 µM, a Kd [21, 41] of no less than 20000 nM and a Kd [4, 41] of no less than 20 µM. The Kd [5, 41] was no less than 20 µM, the Kd [6, 41] was no less than 20 µM and the Kd [7, 41] was no less than 20 µM. The Kd [9, 41] was no less than 20 µM, the Kd [10, 41] was no less than 20 µM and the Kd [11, 41] was no less than 20 µM. For the same sequence, the Kd [12, 41] was no less than 20 µM, the Kd [13, 41] was no less than 20 µM and the Kd [14, 41] was no less than 20 µM. For the same sequence, the Kd [15, 41] was no less than 20 µM.
MVFVELPSK was tested, and the Kd ([23]; source organism: Bacillus anthracis str. A0488) was 101 nM.
FHVRRLLKF was tested, and the Kd [16, 40] was 21.3 nM.
In the case of VQHNIKHSF, the Kd [16, 35] is reported as 0.203 nM.
IMTSGVIPF showed a Kd [16, 40] of 0.223 nM.
SEIQLTDYGA gave a Kd [26, 42] of 42.6 nM, a Kd [22, 42] of 149 nM and a Kd [27, 42] of 972 nM.
LAFSTRFSF was tested, and the Kd ([24]; source organism: Vibrio vulnificus YJ016) was 661 nM, the Kd ([10]; source organism: Vibrio vulnificus) was 0.144 µM and the Kd [28] was 292 nM.
LSEEIGLDL gave a Kd [3, 43] of no less than 20 µM, a Kd [21, 43] of no less than 20000 nM and a Kd [4, 43] of no less than 20 µM. It also gave a Kd [5, 43] of no less than 20 µM, a Kd [6, 43] of no less than 20 µM and a Kd [7, 43] of no less than 20 µM. For the same sequence, the Kd ([8]; source organism: Yersinia pestis) was 6.38 µM, the Kd [9, 43] was no less than 20 µM and the Kd [10, 43] was no less than 20 µM. The Kd [2, 43] was no less than 20 µM, the Kd [11, 43] was no less than 20 µM and the Kd [12, 43] was no less than 20 µM. The Kd [13, 43] was no less than 20 µM, the Kd [14, 43] was no less than 20 µM and the Kd [15, 43] was no less than 20 µM.
In the case of SVYGLMGFH, the Kd ([23]; source organism: Canarypox virus) is reported as 29.2 nM.
AEMEEALRGL showed a Kd [26, 39] of 31.6 nM, a Kd [22, 39] of 17.6 nM and a Kd [27, 39] of 13 nM.
RRHPMRLRK was tested, and the Kd ([6]; source organism: Escherichia coli O157:H7) was 0.0248 µM and the Kd [29] was no less than 20 µM.
ESVKFGNSI gave a Kd [16, 35] of 102 nM.
LKYYYSNSY showed a Kd [16, 35] of 0.242 nM.
RMKWMMAMRY was tested, and the Kd ([23]; source organism: Influenza A virus (A/chicken/Fujian/25/00(H9N2))) was 131 nM.
For ADTGCAVSW, the Kd [26, 38] was 224 nM.
With AWENTVVDL the Kd [21, 37] was 1500 nM.
For KLVIFPSHL, the Kd [16, 35] was 1170 nM.
LEFFLIVLLI was tested, and the Kd [26, 39] was 2480 nM and the Kd [27, 39] was 650 nM.
For NERWFREVI, the Kd [1, 44] was 5.2 nM and the Kd [11, 44] was 0.653 µM.
In the case of MEEALKGLPI, the Kd [26, 45] is reported as 205 nM, the Kd [22, 45] is reported as 338 nM and the Kd [27, 45] is reported as 86.6 nM.
EESRTIRVL showed a Kd [26, 45] of 30.2 nM and a Kd [27, 45] of 249 nM.
Sequence SNINDFNIF has a Kd [16, 35] of 501 nM.
For LYGLITEQF, the Kd ([21]; source organism: Mammarenavirus machupoense) was 0.2 nM, the Kd [30] was 2070 nM and the Kd [31] was 15.5 nM. For the same sequence, the Kd ([25]; source organism: Mammarenavirus tacaribeense) was 3.98 nM.
QQVPFCSHHF showed a Kd [26, 42] of 272 nM and a Kd [18, 42] of 0.0139 µM.
Sequence EKTQYTNDF has a Kd [16, 35] of 832 nM, a Kd [17, 35] of no less than 77800 nM and a Kd [18, 35] of 12.7 µM. It also gave a Kd [19] of 1340 nM and a Kd [20] of no less than 26.7 µM.
With DVSEQLELI the Kd ([32]; source organism: Escherichia coli) was no less than 20000 nM.
KLFFQVIAK gave a Kd ([23]; source organism: Yersinia pestis Antiqua) of 6.5 nM.
KKMQSYNSV gave a Kd [16, 35] of 2.81 nM.
In the case of NSIPAVIGY, the Kd ([32]; source organism: Kurkino virus) is reported as 420 nM.
HEMYWVSGV gave a Kd [22, 38] of 51.5 nM.
FLSNCEKQF was tested, and the Kd [16, 35] was 21 nM.
Sequence QYDDLHKKF has a Kd [3, 46] of no less than 20 µM, a Kd [21, 46] of 62.6 nM and a Kd [4, 46] of no less than 20 µM. The Kd [5, 46] was no less than 20 µM, the Kd [6, 46] was no less than 20 µM and the Kd [7, 46] was no less than 20 µM. It also gave a Kd [8, 46] of no less than 20 µM, a Kd [10, 46] of no less than 20 µM and a Kd [2, 46] of no less than 20 µM. It also gave a Kd [11, 46] of no less than 20 µM, a Kd [12, 46] of no less than 20 µM and a Kd [13, 46] of no less than 20 µM. It also gave a Kd [15, 46] of no less than 20 µM.
With ISSRESVSF the Kd [16, 40] was 12.1 nM.
Sequence AMSTWSFYH has a Kd [23, 43] of 13.3 nM.
MEHKYSWKS gave a Kd [26, 42] of 1000 nM.

Reference: the Immune Epitope Database (IEDB)
